In article PMC10511116 one finds Kd data, which are given here for one sequence.

The target in the data set is ErbB2 (HER2), recombinant (human) (UniProt P04626). The data set is described as follows: ELONA. The following applies: every T is Nap-dU (5-[N-(1-naphthylmethyl)carboxamide]-2'-deoxyuridine, printed P); ELONA: ErbB2-coated plate, biotin-aptamer 1 h at room temp, wash 10 mM PBS, 0.05% Tween-20, pH 7.4 (binding buffer not stated); cells: DPBS, 4.5 g/L glucose ….

“ATGTTAGAGTTTGCCTGAGTGCCTCGCAAGGGCGTAACAA [ErbB2 aptamer]”: the Kd was determined as 1.37 nM.

As usually defined, the Kd is the concentration at which binding is half-saturated.
